Results as given in patent publication US6875851.

Columns and labels:
[1] = target: DPP IV from P. gingivalis (Porphyromonas gingivalis); assay: cell-based or functional assay

Residual activity of DPP IV, % (inhibitor at 10 mM) [1] [%]	Substance	Cleavage site (Peptide 23)
30	Ala-Pro (peptide)	–
1	Ala-Gly-Pro (peptide)	–
0	Val-Pro (peptide)	–
–	DPP IV from P. gingivalis	H-Ser-Pro-↑-Tyr-Ser-Ser-Asp-Thr-Thr
